The values below come from the supplement of paper PMC10724198.

± gives the standard deviation of the averaged measurements.

What all share (experiment): protein stability index of tFT-peptide fusion (C-terminal peptide) (PSI (0-1 scale)); higher = more stable (slower turnover)
Data set [1] has as its system Saccharomyces cerevisiae. Particulars: temperature: 30 C. The procedure:
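MPS profiling in S. cerevisiae of the yeast C-terminome library: the last 12 aa of each annotated ORF are fused to the C-terminus of a sfGFP-mCherry timer, after a GGGS linker. Cells are FACS-sorted into 8 mCherry/sfGFP bins and deep-sequenced. PSI runs from 0 (unstable) to 1 (stable); wild type and das1Δ backgrounds, two technical replicates each.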

The subject of data set [2] is Saccharomyces cerevisiae. The procedure:
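MPS profiling in S. cerevisiae of the tFT-X12 degron library: putative degron peptides plus stable controls, 12 aa, fused to the C-terminus of a sfGFP-mCherry timer. Cells are FACS-sorted into 8 mCherry/sfGFP bins and deep-sequenced. PSI runs from 0 (unstable) to 1 (stable). Backgrounds are wild type, das1Δ and doa10Δ at 30 °C, and wild type, das1Δ, cdc34-1 and cdc53-1 at 37 °C; 2-3 technical replicates each.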

Data set [3] deals with Saccharomyces cerevisiae. Particulars: genetic background: wild type; temperature: 30 C.
Where [4] appears, read: genetic background: das1 deletion.

On to AAKYLNSLSVNQ [PTP1 C-terminal 12 aa], for which the protein stability index in the data set with Saccharomyces cerevisiae [1] (setting [4]) amounted to 0.698 ± 0.029; in the data set on Saccharomyces cerevisiae [1] (genetic background: wild type) it was 0.686 ± 0.043.
The corresponding values for ACDNSGLIGIFQ [VPS15 C-terminal 12 aa] are 0.723 ± 0.02 and 0.681 ± 0.069.
ACFTRLPTPAIL [TRM8 C-terminal 12 aa]: the protein stability index in the data set with Saccharomyces cerevisiae [1] (setting [4]) is 0.68 ± 0.0089; with Saccharomyces cerevisiae [1] (genetic background: wild type) it was 0.6593 ± 0.0055.
ACFVFSPSAMVT [BRP1 C-terminal 12 aa]: the values for the protein stability index with Saccharomyces cerevisiae [1] (setting [4]) and with Saccharomyces cerevisiae [1] (genetic background: wild type) were 0.6493 ± 0.0022 and 0.637 ± 0.028, respectively.
Regarding ADARDKFVDLYN [ADD66 C-terminal 12 aa], the protein stability index in the data set on Saccharomyces cerevisiae [1] (setting [4]) was 0.696 ± 0.027; in the data set with Saccharomyces cerevisiae [1] (genetic background: wild type), 0.708 ± 0.1.
Take ADRASVEIIDAN [PFA3 C-terminal 12 aa]: the protein stability index in the data set on Saccharomyces cerevisiae [1] (setting [4]) came to 0.705 ± 0.021; in the data set with Saccharomyces cerevisiae [1] (genetic background: wild type), 0.7046 ± 0.0057.
For ADWKAQRGEDGK [PNG1 C-terminal 12 aa] the same measures were 0.67376 ± 7.2e-05 and 0.703 ± 0.014.
For AEHHLQTFLSEK [ISC1 C-terminal 12 aa] the same measures were 0.6488 ± 0.0013 and 0.641 ± 0.02.
Turning to AELILETSYDKF [MRX1 C-terminal 12 aa], the protein stability index came to 0.729 ± 0.011 in the data set with Saccharomyces cerevisiae [1] (setting [4]) and 0.722 ± 0.055 with Saccharomyces cerevisiae [1] (genetic background: wild type).
For the sequence AESPEEADVEMS [PUP2 C-terminal 12 aa], the protein stability index in the data set on Saccharomyces cerevisiae [1] (setting [4]) stood at 0.6788 ± 0.0056; with Saccharomyces cerevisiae [1] (genetic background: wild type), 0.707 ± 0.052.
Take AFLKIFENAMPN [ADD37 C-terminal 12 aa]: the protein stability index in the data set on Saccharomyces cerevisiae [1] (setting [4]) came to 0.725 ± 0.019; in the data set with Saccharomyces cerevisiae [1] (genetic background: wild type) it was 0.678 ± 0.0089.
With AFRSLQKSKKKK [PKH3 C-terminal 12 aa], the protein stability index in the data set on Saccharomyces cerevisiae [1] (setting [4]) was 0.717 ± 0.042; with Saccharomyces cerevisiae [1] (genetic background: wild type), 0.793 ± 0.034.
For AGEKTVAELMEN [PYP1 C-terminal 12 aa] the same measures were 0.679 ± 0.025 and 0.687 ± 0.022.
For AGIRKRDWDSTQ [RFM1 C-terminal 12 aa] the same measures were 0.717 ± 0.02 and 0.691 ± 0.055.
For AIQEYNARYPLN [ABF2 C-terminal 12 aa] the same measures were 0.708 ± 0.0085 and 0.707 ± 0.021.
As to AKCGEWTPELSS [CPR2 C-terminal 12 aa], the protein stability index in the data set on Saccharomyces cerevisiae [1] (setting [4]) came out at 0.71451 ± 0.00067; in the data set with Saccharomyces cerevisiae [1] (genetic background: wild type), 0.731 ± 0.014.
On to AKERLNPPSNRR [NIP1 C-terminal 12 aa], for which the protein stability index stood at 0.708 ± 0.014 in the data set with Saccharomyces cerevisiae [1] (setting [4]) and 0.688 ± 0.02 in the data set with Saccharomyces cerevisiae [1] (genetic background: wild type).
As for AKGKGKSDEKIL [YIL086C C-terminal 12 aa], the protein stability index was 0.7026 ± 0.0025 in the data set with Saccharomyces cerevisiae [1] (setting [4]) and 0.73 ± 0.12 in the data set with Saccharomyces cerevisiae [1] (genetic background: wild type).
For ALNGDCCLWRWV [SWD3 C-terminal 12 aa] the same measures were 0.708 ± 0.015 and 0.292 ± 0.013.
Turning to ALNRADKMSTIG [URH1 C-terminal 12 aa], the protein stability index in the data set on Saccharomyces cerevisiae [1] (setting [4]) stood at 0.676 ± 0.027; in the data set on Saccharomyces cerevisiae [1] (genetic background: wild type) it was 0.6665 ± 0.0042.
For ALSEYMENTSGL [RSC9 C-terminal 12 aa] the same measures were 0.696 ± 0.059 and 0.728 ± 0.014.
The corresponding values for ANLFSSKKKAKL [RSB1 C-terminal 12 aa] are 0.803 ± 0.058 and 0.822 ± 0.061.
The corresponding values for ANRQCYVNGTKT [YDR250C C-terminal 12 aa] are 0.663 ± 0.0094 and 0.69065 ± 0.00059.
APAEQTQGEPTK [BMH2 C-terminal 12 aa]: the protein stability index in the data set with Saccharomyces cerevisiae [1] (setting [4]) was 0.71 ± 0.013; with Saccharomyces cerevisiae [1] (genetic background: wild type) it was 0.677 ± 0.012.
APDNGPTVEEVD [SSA4 C-terminal 12 aa]: the results for the protein stability index in the data set with Saccharomyces cerevisiae [1] (setting [4]) and in the data set with Saccharomyces cerevisiae [1] (genetic background: wild type) were 0.69 ± 0.0087 and 0.662 ± 0.023, respectively.
The corresponding values for APEEEAYKPNQN [KRR1 C-terminal 12 aa] are 0.708 ± 0.0089 and 0.671 ± 0.012.
For APRLRLEDIFQQ [RET1 C-terminal 12 aa] the same measures were 0.752 ± 0.011 and 0.7 ± 0.052.
For AQGKLIMNVEKF [AST1 C-terminal 12 aa] the same measures were 0.712 ± 0.05 and 0.689 ± 0.019.
Turning to AQQNYRLWLSSF [ICY1 C-terminal 12 aa], the protein stability index with Saccharomyces cerevisiae [1] (setting [4]) came out at 0.7166 ± 0.0069; in the data set with Saccharomyces cerevisiae [1] (genetic background: wild type) it was 0.6246 ± 0.0033.
For ARGYVNVMDNIQ [SEC16 C-terminal 12 aa] the same measures were 0.6727 ± 0.0025 and 0.678 ± 0.042.
Regarding ARIWKYKKIAPN [TUP1 C-terminal 12 aa], the protein stability index in the data set on Saccharomyces cerevisiae [1] (setting [4]) came to 0.726 ± 0.0075; in the data set with Saccharomyces cerevisiae [1] (genetic background: wild type), 0.706 ± 0.0071.
Consider ARMLARECRRHM [CDC23 C-terminal 12 aa], for which the protein stability index in the data set with Saccharomyces cerevisiae [1] (setting [4]) is 0.7022 ± 0.00087; with Saccharomyces cerevisiae [1] (genetic background: wild type), 0.698 ± 0.054.
For ASRFAQFLKQDA [MET16 C-terminal 12 aa], the protein stability index in the data set with Saccharomyces cerevisiae [1] (setting [4]) stood at 0.717 ± 0.012; in the data set on Saccharomyces cerevisiae [1] (genetic background: wild type), 0.764 ± 0.15.
With ATALSGHKANCN [MTQ1 C-terminal 12 aa], the protein stability index in the data set on Saccharomyces cerevisiae [1] (setting [4]) came to 0.6878 ± 0.0049; in the data set with Saccharomyces cerevisiae [1] (genetic background: wild type), 0.6424 ± 0.0012.
As for ATFFRYLSNIFT [AGP3 C-terminal 12 aa], the protein stability index turned out to be 0.723 ± 0.0077 in the data set with Saccharomyces cerevisiae [1] (setting [4]) and 0.698 ± 0.0078 with Saccharomyces cerevisiae [1] (genetic background: wild type).
ATLINILLELFS [ECM27 C-terminal 12 aa]: the results for the protein stability index in the data set with Saccharomyces cerevisiae [1] (setting [4]) and in the data set with Saccharomyces cerevisiae [1] (genetic background: wild type) were 0.632 ± 0.014 and 0.63 ± 0.018, respectively.
Consider ATSTAAAADKKT [HAP2 C-terminal 12 aa], for which the figures for the protein stability index in the data set with Saccharomyces cerevisiae [1] (setting [4]) and in the data set with Saccharomyces cerevisiae [1] (genetic background: wild type) were 0.6674 ± 0.0023 and 0.724 ± 0.04, respectively.
Consider WCVRRVRFVMGC, for which the protein stability index with Saccharomyces cerevisiae [2] (genetic background: cdc34-1, temperature: 37 C) came out at 0.414 ± 0.019; with Saccharomyces cerevisiae [2] (genetic background: cdc53-1, temperature: 37 C), 0.458 ± 0.05; with Saccharomyces cerevisiae [2] (genetic background: das1 deletion, temperature: 30 C) it was 0.316 ± 0.024; with Saccharomyces cerevisiae [2] (genetic background: das1 deletion, temperature: 37 C), 0.479 ± 0.0081; in the data set on Saccharomyces cerevisiae [2] (genetic background: doa10 deletion, temperature: 30 C), 0.2183 ± 0.0013; with Saccharomyces cerevisiae [2] (genetic background: wild type, temperature: 30 C), 0.234 ± 0.027. Besides, the protein stability index came out at 0.378 ± 0.013 with Saccharomyces cerevisiae [2] (genetic background: wild type, temperature: 37 C) and 0.31 ± 0.0046 with Saccharomyces cerevisiae [3].
